From patent US20080311122A1 (AstraZeneca / MedImmune, published 2008)
Positions count from the first letter of the chain named. One block for each binder: values may come before it.

Key:
[1] = molecular target: T1, recombinant HMG1 purified from E. coli as a calmodulin binding protein (CBP) fusion protein (human, UniProt A9RA84 1-215 (Papio anubis entry)); assay: cell-based or functional assay
T1 sequence: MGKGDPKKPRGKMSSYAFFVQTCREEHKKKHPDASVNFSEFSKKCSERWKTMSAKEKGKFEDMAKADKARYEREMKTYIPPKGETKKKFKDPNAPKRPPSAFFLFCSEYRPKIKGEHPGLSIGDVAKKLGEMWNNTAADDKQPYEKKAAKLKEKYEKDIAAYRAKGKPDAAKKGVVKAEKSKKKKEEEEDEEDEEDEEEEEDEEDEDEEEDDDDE

[2] = molecular target: T2, HMG1 B Box peptide amino acids 91-169; assay: ELISA, wells coated with HMG1 B Box peptide 91-169 at 10 ug/ml
T2 construct: also called HMG1 peptide 91-169
T2 peptide: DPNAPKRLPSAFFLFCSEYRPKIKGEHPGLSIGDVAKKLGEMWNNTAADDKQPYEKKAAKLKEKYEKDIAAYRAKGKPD
Experimental: (§1) The plate was then blocked with 4% milk powder dissolved in PBS at 37° C. for 1 hour. The blocking solution was removed and replaced with human anti-HMG1 antibodies at various concentrations (see FIGS. 5A-B). […] HRP activity was detected with Sureblue HRP substrate (KPL). Plates were read at 450 nm using a Kinetic Microplate Reader (Molecular Devices). […] After washing and blocking with 1% BSA in PBS, the biotinylated peptides were individually added into the avidin coated wells and incubated for 30 min at room temperature. The serial diluted antibody G4, S16 and S6 at the initial concentration at 10 μg/ml were then transferred into the wells followed by adding mouse anti human IgG-HRP conjugate (Pierce). Detection was accomplished by adding 50 μl of tetramethylbenzidine (TMB) substrate (KPL) and the absorbance was read at […].

[3] = molecular target: T3, HMG1 purified from bovine (calf) thymus (bovine, UniProt P10103 2-215); assay: ELISA, wells coated with calf thymus HMGB1 at 5 ug/mL, antibody at 10 ug/mL, anti-human kappa/lambda-HRP, OD 490
T3 construct: also called Calf thymus HMGB1; thymus HMG1
T3 sequence (looked up): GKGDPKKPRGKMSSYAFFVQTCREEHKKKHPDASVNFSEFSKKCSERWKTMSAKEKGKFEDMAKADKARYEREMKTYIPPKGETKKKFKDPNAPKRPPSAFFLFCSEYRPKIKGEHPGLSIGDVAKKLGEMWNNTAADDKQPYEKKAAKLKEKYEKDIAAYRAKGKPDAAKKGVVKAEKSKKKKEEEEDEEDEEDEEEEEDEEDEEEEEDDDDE
Experimental: (§2) Binding to HMG1 vs. HMG2: Ultra high-binding ELISA plates (ThermoLab systems, #3855) were coated with either 5 ug/mL of Calf thymus HMGB1 or HMBG2 diluted in 10 mM Phosphate buffered saline (PBS), pH 7.2 and incubate overnight at 4 degrees. The plates were washed twice with Ca and Mg free PBS and 100 microliters of anti-HMGB1 antibody diluted in 10 mM PBS, pH 7.2+1% bovine serum albumin (BSA) to a final concentration of 10 ug/mL was added to each well and the plates were incubated 1 hour at room temperature. The wells were washed three times with 100 μl of PBS, pH 7.2. HRP labeled goat-anti-human IgG Kappa-chain (KPL, #14-10-10) and goat-anti-human IgG Lambda-chain (KPL, #14-10-11) were diluted in 10 mM PBS+1% BSA 1:1000 and 100 μl were added to each well and incubated for 1 hour at room temperature. The wells were then washed three times with 100 μl of PBS, pH 7.2. OPD substrate (Pierce chemical company, #34006) was prepared following the manufacturers instructions and 100 μl of prepared substrate was added to each well and the plates incubated at room temperature in the dark for 20-30 minutes. The reaction was stopped with the addition of 100 μl of 2M H₂SO₄, and the plates read on a plate reader at a wavelength of 490 nm.

[4] = molecular target: T4, recombinant rat HMGB-1, Europium-labeled (rat, UniProt P63159 1-215, limits assumed, Europium label, molar ratio of HMGB-1 to Eu 1:5); assay: inhibition of binding of Eu-labeled HMGB-1 to THP-1 cells
T4 construct: also called Europium-labeled HMGB-1; recombinant HMG1 (Thp-1 assay)
T4 sequence (looked up): T1 sequence with E189D, D202E
Experimental: HMG1 binding to THP-1 Cells: Recombinant rat HMGB-1 was labeled using Eu-labelling Kit from PerkinElmer. Molar ratio of HMGB-1 to Eu is 1:5. THP-1 were cultured as the protocol from ATCC. Cells were harvested and suspended at concentration 1×10⁶/ml in assay buffer containing 1×DELFIA L*R binding buffer (PerkinElmer), 50% of DELFIA stabilizer (PerkinElmer) and 0.05% of sodium azide. 100 μl of cells (1×10⁵) was added into wells in 96 well cell culture plate. The plate was incubated with gentle shaking at 4° C. for one hour. 100 μl of assay buffer containing 2 nM of Europium-labeled HMGB-1 mixed with various concentrations (333, 166.5, 83.25, 41.6, 20.8, 10.4 and 5.2 nM) of human anti-HMGB1 antibodies E11 or G2 or soluble human RAGE-Fc, were added into each wells respectively. After one hour incubation with gentle shaking at 4° C., the cells were washed four times with 1×L*R wash buffer (PerkinElmer) by centrifuging at 1200 rpm×5 min. 200 μl of enhancement solution was added into each well to dissociate and enhance Eu fluorescence at 615 nm. The fluorescence was measured with Wallac Victor Fluorometer. Assay was performed in triplicate and human antibody R3-47 was used the negative isotype control.

HMG2 = molecular target: T5, HMG2 (UniProt P40673 2-209, limits assumed); assay: ELISA, wells coated with HMGB2 at 5 ug/mL, OD 490
T5 construct: also called HMGB2; HMBG2
T5 sequence (looked up): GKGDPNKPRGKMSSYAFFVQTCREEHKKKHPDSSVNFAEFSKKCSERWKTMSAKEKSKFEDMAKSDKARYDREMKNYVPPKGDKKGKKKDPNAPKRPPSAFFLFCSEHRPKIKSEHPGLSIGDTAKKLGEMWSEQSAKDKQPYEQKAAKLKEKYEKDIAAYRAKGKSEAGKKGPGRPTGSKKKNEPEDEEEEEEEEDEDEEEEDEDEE
Experimental: as §2

[5] = molecular target: T6, HMG1 B Box peptide amino acids 150-183; assay: ELISA, wells coated with HMG1 B Box peptide 150-183 at 10 ug/ml
T6 peptide: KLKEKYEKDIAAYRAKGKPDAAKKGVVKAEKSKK
Experimental: as §1

[6] = molecular target: T1, recombinant HMG1 purified from E. coli …; assay: ELISA, rHMG1 preincubated with antibody, coated RAGE-Fc
Experimental: HMG1 binding to RAGE-Ig by ELISA: 50 μl/well of RAGE-Fc fusion protein at 5 μg/ml in PBS was added to each well of an ELISA plate and incubated overnight at 4° C. The plate was then blocked with 200 μl of 5% milk at 37° C. for 1 hr and washed 3× with PBS/Tween. 50 μl/well of diluted HMGB1 solution. For dose curves, HMGB1 concentrations started at 4 ug/ml in PBS. For antibody blocking the HMGB1 was preincubated in another plate with human anti-HMG1 antibodies or buffer, then transferred to the RAGE-coated plate. The plates were then incubated at room temperature for 2 hours and washed 3×. To detect any HMG1 bound to the immobilized RAGE-Fc a mixture of biotinylated mouse anti-HMG1 mAbs (10D4, 4H11, 3E10 and 5C12) each at 1 ug/ml, total Ab: 4 ug/ml, were added to each well and the plate was incubated for 1 hour at room temperature. The plate was then washed and Strepavidin-HPR was added to each well and incubated 15 min. The plate was then washed 3× and blotted dry. 100 μl of TMB developing agent was added and the plate read at 650 nm. Values were calculated as percent of inhibition with HMG1 alone equal to 0% inhibition. The data in FIG. 9 and summarized in Table 1 represent the average of two separate experiments.

[7] = molecular target: T1, recombinant HMG1 purified from E. coli …; assay: BIAcore, mAb immobilized, HMG1 injected, steady-state model
Experimental: HMG1 Binding Affinity via BIAcore Analysis: All experiments were performed on a BIAcore 3000 instrument (BIAcore, Inc., Piscataway, N.J.). Briefly, each mAb was immobilized to a CM5 sensor chip using a standard amino coupling chemistry. Separately a reference (control) flow cell was also prepared. Two-fold, serial dilutions of HMG1 in instrument buffer were sequentially injected at a slow flow rate over the individual mAb and reference flow-cell surfaces. Following the binding and dissociation of HMG1, the mAbs surfaces were regenerated with a brief pulse of 1M NaCl-50 mM NaOH. At the end of each experiment, the binding curves were evaluated using a steady-state model available through the BIA evaluation software supplied by BIAcore, Inc. (Piscataway, N.J.).

[8] = molecular target: T7, activated HMG1 prepared from LPS stimulated THP-1 cells (human, UniProt P09429 1-215); assay: cell-based or functional assay
T7 sequence (looked up): T1 sequence

IC50, inhibition of rHMG1 stimulated IL-1β release from human PBMC [1]: 5.03 µg/mL
IC50, inhibition of rHMG1 stimulated IL-6 release from human PBMC [1]: 0.994 nM
IC50, inhibition of rHMG1 stimulated IL-12 release from human PBMC [1]: 1.26 µg/mL
IC50, inhibition of rHMG1 stimulated TNF-α release from human PBMC [1]: 1.35 µg/mL
binding result [2]: no binding (tested: 10 ug/ml (log 1.00))
binding result [3]: binds
IC50 [4]: 73.3 nM
binding result [5]: no binding (tested: 10 ug/ml (log 1.00))
B1: anti-HMG1 antibody G2 (antibody, V domains shown)
VH: EVQLLESGGGLVQPGGSLRLSCAASGFTFSWYKMQWVRQAPGKGLEWVSGISPSGGSTAYADSVKGRFTISRDNSKNTLYLQMNSLRAEDTAVYYCAKMGLFNTGNSYVDYWGQGTLVTVSS
VL: AQSELTQPPSVSEAPGQRVTISCSGSTSNIGNNAVIWYQQLPGKAPKLLIYYDDLLPSGVSDRFSGSKSGTSGSLAISGLQSEDEADYYCASWDDNLNGPLFGGGTKLTVL
binding result (HMG2): no binding (tested: 10 ug/mL (not on the sheet))

IC50, inhibition of rHMG1 stimulated IL-1β release from human PBMC [1]: 2.59 µg/mL
IC50, inhibition of rHMG1 stimulated IL-6 release from human PBMC [1]: 0.324 nM
IC50, inhibition of rHMG1 stimulated IL-12 release from human PBMC [1]: 1.13 µg/mL
IC50, inhibition of rHMG1 stimulated TNF-α release from human PBMC [1]: 0.875 µg/mL
binding result [2]: no binding (tested: 10 ug/ml (log 1.00))
percent inhibition of HMG1 binding to RAGE-Fc [6]: ≥ 35%
binding result [3]: binds
Kd [7]: 54 nM
binding result [5]: no binding (tested: 10 ug/ml (log 1.00))
B2: anti-HMG1 antibody S10 (antibody, V domains shown)
VH: EVQLLESGGGLVQPGGSLRLSCAASGFTFSWYDMWWVRQAPGKGLEWVSWIVPSGGITAYADSVKGRFTISRDNSKNTLYLQMNSLRAEDTATYYCARGNYGPSPFDYWGQGTLVTVSS
VL: DIQMTQSPGTLSLSPGERATLSCRATQSVRKNFLAWYQQKPGQAPRLLIYDASSRATGIPDRFSGSGSGTDFTLTISRLEPEDFAVYYCQQYGNSPIIFGQGTRLEIK
binding result (HMG2): no binding (tested: 10 ug/mL (not on the sheet))

IC50, inhibition of native activated HMG1 stimulated IL-6 release from human PBMC [8]: 11.5 nM
IC50, inhibition of HMG1 stimulated NO release from macrophages [1]: 41.7 µg/mL
IC50, inhibition of rHMG1 stimulated IL-1β release from human PBMC [1]: 0.0809 µg/mL
IC50, inhibition of rHMG1 stimulated IL-6 release from human PBMC [1]: 0.162 nM
binding result [2]: no binding (tested: 10 ug/ml (log 1.00))
binding result [3]: binds
binding result [5]: no binding (tested: 10 ug/ml (log 1.00))
B3: anti-HMG1 antibody S17 (antibody, V domains shown)
VH: EVQLLESGGGLVQPGGSLRLSCAASGFTFSYYDMHWVRQAPGKGLEWVSRISPSGGYTWYADSVKGRFTISRDNSKNTLYLQMNSLRAEDTAVYYCTRGRYTSGWHEYFDPWGQGTLVTVSS
VL: DIQMTQSPSSLSASVGDRVTITCRASQSIGTYLNWYQQKPGTAPKVLIYAASSLQSGVPSRFSGSGSGTDFTLTISSLQPEDFSTYYCQQSYNTPRTFGQGTKLEIK
binding result (HMG2): no binding (tested: 10 ug/mL (not on the sheet))
